From PMC5018250, “Structure of the Bacterial Sex F Pilus Reveals an Assembly of a Stoichiometric Protein-Phospholipid Complex” (Cell, 2016)

Biological target: the molecule itself
Assay: cryo-EM structure; purified F pili in Tris-HCl, 200 mM NaCl, pH 8.0, vitrified; helical reconstruction (IHRSR), two classes with axial rise 12.5 A and 13.2 A, 5.0 A maps

B1: F TraA pilin (natural protein, E. coli (F plasmid; pOX38 in DH5alpha), UniProt P04737 52-121, looked up)
chain: AGSSGQDLMASGNTTVKATFGKDSSVVKWVVLAEVLVGAVMYMMTKNVKFLAGFAIISVFIAVGMAVVGL
notes: TraA pilin of the F pilus encoded by the F plasmid derivative pOX38; N terminus 4 aa longer than that of pED208 TraA and disordered in the maps; Stands in the pilus as a helical polymer; two filament populations (axial rise 12.5 A and 13.2 A); also called F pilin; F pilus subunit; source: produced in vivo from the pOX38-Cm plasmid in E. coli DH5alpha
B1: binds.
